# Assay results taken from publication PMC10711553, “Structural and biochemical analysis of the PARP1-homology region of PARP4/vault PARP”.
# T1: PARP4 BRCT-WGR-CAT (Homo sapiens, UniProt Q9UKK3 1-573)
# T1 sequence: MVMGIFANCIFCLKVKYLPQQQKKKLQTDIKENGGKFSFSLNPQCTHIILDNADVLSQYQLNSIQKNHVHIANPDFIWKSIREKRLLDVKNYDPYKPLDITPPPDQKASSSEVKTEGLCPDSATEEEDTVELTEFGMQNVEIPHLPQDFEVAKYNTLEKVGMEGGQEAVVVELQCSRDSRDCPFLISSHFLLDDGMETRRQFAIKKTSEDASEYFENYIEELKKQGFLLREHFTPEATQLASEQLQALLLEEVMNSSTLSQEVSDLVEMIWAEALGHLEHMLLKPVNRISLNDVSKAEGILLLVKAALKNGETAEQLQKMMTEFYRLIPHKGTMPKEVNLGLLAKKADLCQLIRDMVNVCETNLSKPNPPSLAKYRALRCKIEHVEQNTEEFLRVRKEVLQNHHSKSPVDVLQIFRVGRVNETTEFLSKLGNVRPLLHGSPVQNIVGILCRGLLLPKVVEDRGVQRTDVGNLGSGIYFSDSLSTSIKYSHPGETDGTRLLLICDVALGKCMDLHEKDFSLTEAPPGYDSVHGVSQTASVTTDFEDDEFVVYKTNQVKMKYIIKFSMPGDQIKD
# T2: PARP4 WGR-CAT (Homo sapiens, UniProt Q9UKK3 95-573)
# T2 sequence: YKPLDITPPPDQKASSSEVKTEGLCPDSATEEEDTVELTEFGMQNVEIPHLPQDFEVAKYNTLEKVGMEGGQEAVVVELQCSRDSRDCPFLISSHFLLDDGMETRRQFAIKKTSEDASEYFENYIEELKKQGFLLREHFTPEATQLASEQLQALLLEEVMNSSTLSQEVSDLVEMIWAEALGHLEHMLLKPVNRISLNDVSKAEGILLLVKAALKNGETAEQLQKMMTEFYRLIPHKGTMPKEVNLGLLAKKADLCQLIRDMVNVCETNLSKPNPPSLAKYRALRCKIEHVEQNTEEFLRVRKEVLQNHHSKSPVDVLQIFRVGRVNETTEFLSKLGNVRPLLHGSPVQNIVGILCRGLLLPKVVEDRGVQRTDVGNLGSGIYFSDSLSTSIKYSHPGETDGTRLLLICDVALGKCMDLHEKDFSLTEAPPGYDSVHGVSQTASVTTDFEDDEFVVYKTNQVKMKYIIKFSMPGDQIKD
# Experiments:
# [1] = target: T1, PARP4 BRCT-WGR-CAT; assay: fluorescence polarization; 30 nM RNA; apparent Kd; FP: 50 mM Tris pH 7.5, 50 mM NaCl, 0.05% NP40, 2 mM DTT, 5% glycerol, room temperature 30 min; EMSA: same but 20% glycerol, 100 nM nucleic acid, room temperature 30 min, gel at 4 C in Tris-glycine; conditions: protein: recombinant; tags: N-terminal His-SUMO tag, cleaved with TEV; label: 5'-6-FAM; Mfold secondary structure, annealed
# [2] = target: T2, PARP4 WGR-CAT; assay: fluorescence polarization; 30 nM RNA; FP: 50 mM Tris pH 7.5, 50 mM NaCl, 0.05% NP40, 2 mM DTT, 5% glycerol, room temperature 30 min; EMSA: same but 20% glycerol, 100 nM nucleic acid, room temperature 30 min, gel at 4 C in Tris-glycine; conditions: protein: recombinant; tags: N-terminal His-SUMO tag, cleaved with TEV; label: 5'-6-FAM; Mfold secondary structure, annealed
# [3] = target: T1, PARP4 BRCT-WGR-CAT; assay: EMSA; 100 nM RNA; apparent Kd; FP: 50 mM Tris pH 7.5, 50 mM NaCl, 0.05% NP40, 2 mM DTT, 5% glycerol, room temperature 30 min; EMSA: same but 20% glycerol, 100 nM nucleic acid, room temperature 30 min, gel at 4 C in Tris-glycine; conditions: protein: recombinant, tags: N-terminal His-SUMO tag, cleaved with TEV, Mfold secondary structure, annealed
# [4] = target: T2, PARP4 WGR-CAT; assay: EMSA; 100 nM RNA; FP: 50 mM Tris pH 7.5, 50 mM NaCl, 0.05% NP40, 2 mM DTT, 5% glycerol, room temperature 30 min; EMSA: same but 20% glycerol, 100 nM nucleic acid, room temperature 30 min, gel at 4 C in Tris-glycine; conditions: protein: recombinant; tags: N-terminal His-SUMO tag, cleaved with TEV; label: none (SYBR Gold stain); Mfold secondary structure, annealed
# [5] = target: T2, PARP4 WGR-CAT; assay: EMSA; 100 nM DNA; FP: 50 mM Tris pH 7.5, 50 mM NaCl, 0.05% NP40, 2 mM DTT, 5% glycerol, room temperature 30 min; EMSA: same but 20% glycerol, 100 nM nucleic acid, room temperature 30 min, gel at 4 C in Tris-glycine; conditions: protein: recombinant; tags: N-terminal His-SUMO tag, cleaved with TEV; label: none stated (SYBR Gold stain); blunt
binder,measurement,setting,value
vtRNA1-2 (structured_RNA) RNA: GGCUGGCUUUAGCUCAGCGGUUACUUCGAGUACAUUGUAACCACCUCUCUGGGUGGUUCGAGACCCGCGGGUGCUUUCCAGCUCUUUU,Kd,[1],15 ± 9 µM
same,binding result,[2],no binding
same,Kd,[3]; label: 5'-6-FAM,1.5 ± 0.4 µM
HDV ribozyme RNA (84 nt) (structured_RNA) RNA: GCCGGCCAUGGUCCCAGCCUCCUCGCUGGCGGCCGGUGGGCAACAUUCCGAGGGGACCGUCCCUCGGUAAUGGCGAAUGGGACA,binding result,[4],no binding
same,Kd,[3]; label: none (SYBR Gold stain),3.4 ± 0.3 µM
47-bp DNA duplex (dsDNA) DNA 1: CAGATCTACCGAATCAGTCCGACGACGCATCTGCACTACGAGGATAC DNA 2: GTATCCTCGTAGTGCAGATGCGTCGTCGGACTGATTCGGTAGATCTG,binding result,[5],no binding
